The text below walks through data of patent publication US20170058015A1 (ALBERT EINSTEIN COLLEGE OF MEDICINE, published 2017).

Experiment [1] deals with 8.3 T cell receptor on CD8+ T cells of 8.3 TCR transgenic NOD mice (mouse (NOD)). The experiment is described as follows: cell-based or functional assay.
The target in experiment [2] is T1, synTac 4-1BBL trimer (synTac 40+51; 4-1BBL synTac co-expressed with free 4-1BBL) (murine, UniProt P41273 50-254 (human entry), Interchain disulfide between linker Cys (GCGAS) and H-2Kd Cys84. Fc hinge disulfides join two synTac units. Two free 4-1BBL chains join each synTac-borne 4-1BBL non-covalently.).
T1 construct: also called Native trimer; trimeric syntac-41BBL
The experiment is described as follows: flow cytometry, Protein A microbeads coated with 4-1BB-Fc; detection antibody to the synTac heavy chain isotype. For orientation: A flow cytometer gives signals particle by particle.

Turning to “synTac IGRP-PD-L1 (light chain version) (from UniProt Q9Z186 206-214; P01902 22-305) (peptide-MHC)”, the IFNγ secretion by anti-CD3 stimulated CD8+ 8.3 T cells (suppression) in experiment [1] is 100 fold.

B1: recombinant mouse 4-1BB-Fc fusion protein (Fc fusion, UniProt P20334 24-187, looked up)
chain: VQNSCDNCQPGTFCRKYNPVCKSCPPSTFSSIGGQPNCNICRVCAGYFRFKKFCSSTHNAECECIEGFHCLGPQCTRCEKDCRPGQELTKQGCKTCSLGTFNDQNGTGVCRPWTNCSLDGRSVLKTGTTEKDVVCGPPVVSFSPSTTISVTPEGGPGGHSLQVL
notes: From commercial sources; coated on Protein A microbeads; also called murine 4-1BB; murine receptor; not shown: Fc of the commercial fusion protein
With B1, the binding result in experiment [2] was “binds”.
